{
  "source": "paper PMC6476560",
  "about": "(PLoS ONE, 2019)",
  "binders": {"B1": {"name": "Pup-Icl1-Fl (fluorescein-labelled pupylated isocitrate lyase 1 Icl1) (complex)", "chain 1": "MSVVGTPKSAEQIQQEWDTNPRWKDVTRTYSAEDVVALQGSVVEEHTLARRGAEVLWEQLHDLEWVNALGALTGNMAVQQVRAGLKAIYLSGWQVAGDANLSGHTYPDQSLYPANSVPQVVRRINNALQRADQIAKIEGDTSVENWLAPIVADGEAGFGGALNVYELQKALIAAGVAGSHWEDQLASEKKCGHLGGKVLIPTQQHIRTLTSARLAADVADVPTVVIARTDAEAATLITSDVDERDQPFITGERTREGFYRTKNGIEPCIARAKAYAPFADLIWMETGTPDLEAARQFSEAVKAEYPDQMLAYNCSPSFNWKKHLDDATIAKFQKELAAMGFKFQFITLAGFHALNYSMFDLAYGYAQNQMSAYVELQEREFAAEERGYTATKHQREVGAGYFDRIATTVDPNSSTTALTGSTEEGQFH", "chain 2": "MAQEQTKRGGGGGDDDDIAGSTAAGQERREKLTEETDDLLDEIDDVLEENAEDFVRAYVQKGGE", "notes": "copies: 4 + 2"}, "B2": {"name": "Pup-Icl1 (pupylated isocitrate lyase 1 Icl1), unlabelled (complex)", "chain 1": "MSVVGTPKSAEQIQQEWDTNPRWKDVTRTYSAEDVVALQGSVVEEHTLARRGAEVLWEQLHDLEWVNALGALTGNMAVQQVRAGLKAIYLSGWQVAGDANLSGHTYPDQSLYPANSVPQVVRRINNALQRADQIAKIEGDTSVENWLAPIVADGEAGFGGALNVYELQKALIAAGVAGSHWEDQLASEKKCGHLGGKVLIPTQQHIRTLTSARLAADVADVPTVVIARTDAEAATLITSDVDERDQPFITGERTREGFYRTKNGIEPCIARAKAYAPFADLIWMETGTPDLEAARQFSEAVKAEYPDQMLAYNCSPSFNWKKHLDDATIAKFQKELAAMGFKFQFITLAGFHALNYSMFDLAYGYAQNQMSAYVELQEREFAAEERGYTATKHQREVGAGYFDRIATTVDPNSSTTALTGSTEEGQFH", "chain 2": "MAQEQTKRGGGGGDDDDIAGSTAAGQERREKLTEETDDLLDEIDDVLEENAEDFVRAYVQKGGE", "notes": "copies: 4 + 2"}, "B3": {"name": "wild-type MtbMpa (mycobacterial proteasomal ATPase), hexamer (enzyme)", "chain": "MGESERSEAFGIPRDSPLSSGDAAELEQLRREAAVLREQLENAVGSHAPTRSARDIHQLEARIDSLAARNSKLMETLKEARQQLLALREEVDRLGQPPSGYGVLLATHDDDTVDVFTSGRKMRLTCSPNIDAASLKKGQTVRLNEALTVVEAGTFEAVGEISTLREILADGHRALVVGHADEERVVWLADPLIAEDLPDGLPEALNDDTRPRKLRPGDSLLVDTKAGYAFERIPKAEVEDLVLEEVPDVSYADIGGLSRQIEQIRDAVELPFLHKELYREYSLRPPKGVLLYGPPGCGKTLIAKAVANSLAKKMAEVRGDDAHEAKSYFLNIKGPELLNKFVGETERHIRLIFQRAREKASEGTPVIVFFDEMDSIFRTRGTGVSSDVETTVVPQLLSEIDGVEGLENVIVIGASNREDMIDPAILRPGRLDVKIKIERPDAEAAQDIYSKYLTEFLPVHADDLAEFDGDRSACIKAMIEKVVDRMYAEIDDNRFLEVTYANGDKEVMYFKDFNSGAMIQNVVDRAKKNAIKSVLETGQPGLRIQHLLDSIVDEFAENEDLPNTTNPDDWARISGKKGERIVYIRTLVTGKSSSASRAIDTESNLGQYL"}},
  "experiment_in_all_cases": "MST",
  "settings_in_all_cases": "both partners purified",
  "key": {"[1]": {"target": "B3"}, "[2]": {"target": "T1, fluorescently labelled Dop (deamidase of Pup; depupylase) (UniProt P9WNU9 1-505)", "T1 sequence": "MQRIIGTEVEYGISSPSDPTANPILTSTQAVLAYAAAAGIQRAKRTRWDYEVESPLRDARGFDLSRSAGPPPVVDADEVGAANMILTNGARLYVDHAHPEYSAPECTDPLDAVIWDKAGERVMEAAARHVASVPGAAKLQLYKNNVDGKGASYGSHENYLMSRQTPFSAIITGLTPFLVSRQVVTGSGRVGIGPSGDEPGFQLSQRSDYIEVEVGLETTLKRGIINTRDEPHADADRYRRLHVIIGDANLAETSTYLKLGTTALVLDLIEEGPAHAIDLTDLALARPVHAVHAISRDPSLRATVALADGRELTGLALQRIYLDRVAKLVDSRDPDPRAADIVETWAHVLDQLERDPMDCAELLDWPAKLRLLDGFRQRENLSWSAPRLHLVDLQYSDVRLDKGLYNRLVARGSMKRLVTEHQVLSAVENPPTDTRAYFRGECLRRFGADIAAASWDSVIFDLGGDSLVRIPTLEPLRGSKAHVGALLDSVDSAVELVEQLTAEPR"}, "[3]": {"target": "Pup-PckA-Fl (fluorescein-labelled pupylated phosphoenolpyruvate carboxykinase PckA) (Mycobacterium tuberculosis, UniProt P9WIH3;P9WHN5, PupE (C-terminal glutamine as glutamate))"}},
  "data": [
    {"binder": "B1", "values": [
      {"measurement": "Kd", "setting": "[1]", "value": "160 ± 30", "unit": "nM"}
    ]},
    {"binder": "B2", "values": [
      {"measurement": "Kd", "setting": "[2]", "value": "129 ± 41", "unit": "nM"}
    ]},
    {"binder": "B3", "values": [
      {"measurement": "Kd", "setting": "[3]", "value": "210 ± 100", "unit": "nM"}
    ]}
  ]
}
